Results taken from US20220025022A1.

T1: CFA/I fimbrial protein (with adhesin subunit CfaE) on ETEC strain H10407 (enterotoxigenic Escherichia coli (ETEC)) (UniProt P25734)
T1 sequence (looked up): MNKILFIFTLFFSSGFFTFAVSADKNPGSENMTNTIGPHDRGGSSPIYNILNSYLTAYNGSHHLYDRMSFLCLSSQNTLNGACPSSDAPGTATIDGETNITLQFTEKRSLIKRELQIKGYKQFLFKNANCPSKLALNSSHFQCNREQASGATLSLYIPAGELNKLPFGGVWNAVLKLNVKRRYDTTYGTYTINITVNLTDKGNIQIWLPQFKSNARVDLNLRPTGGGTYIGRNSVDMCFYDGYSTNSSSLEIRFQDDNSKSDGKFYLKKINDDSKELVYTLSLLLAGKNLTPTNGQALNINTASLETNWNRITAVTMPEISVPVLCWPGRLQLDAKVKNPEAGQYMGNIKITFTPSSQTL

B1: VHH antibody 1H4 (monomeric) (VHH)
VHH: EVQLVESGGGLVQAGGSLRLSCAASSRTFNHYNIGWFRQAPGKEREFAAAITWNGRSTLYADSVKGRFTISRDNAKNTVYLQMNSLKPEDTAVYYCATLTTWEHKWEYNSQGQGTQVTVSS
B2: dimeric 2R215 (VHH)
chain: QVQLQESGGGLVQAGGSLRLSCAASGNIFQDAEMGWYRQAPGKEREFVATIAYGGNTNYADSVKGRFTISRDNAKNTVYLQMNSLKPEDTAVYYCAVYTGVYYDRTTGGYVAFEYWGQGTQVTVSSGGGGSGGGGSGGGGSGGGGSGGGGSGGGGSQVQLQESGGGLVQAGGSLRLSCAASGNIFQDAEMGWYRQAPGKEREFVATIAYGGNTNYADSVKGRFTISRDNAKNTVYLQMNSLKPEDTAVYYCAVYTGVYYDRTTGGYVAFEYWGQGTQVTVSSHHHHHH
B3: trimeric 2R215 (VHH)
chain: QVQLQESGGGLVQAGGSLRLSCAASGNIFQDAEMGWYRQAPGKEREFVATIAYGGNTNYADSVKGRFTISRDNAKNTVYLQMNSLKPEDTAVYYCAVYTGVYYDRTTGGYVAFEYWGQGTQVTVSSGGGGSGGGGSGGGGSQVQLQESGGGLVQAGGSLRLSCAASGNIFQDAEMGWYRQAPGKEREFVATIAYGGNTNYADSVKGRFTISRDNAKNTVYLQMNSLKPEDTAVYYCAVYTGVYYDRTTGGYVAFEYWGQGTQVTVSSGGGGSGGGGSGGGGSQVQLQESGGGLVQAGGSLRLSCAASGNIFQDAEMGWYRQAPGKEREFVATIAYGGNTNYADSVKGRFTISRDNAKNTVYLQMNSLKPEDTAVYYCAVYTGVYYDRTTGGYVAFEYWGQGTQVTVSSHHHHHH

How the values were obtained:
[1] = target: MBP-CfaE-N (recombinant N-terminal adhesin domain of CfaE fused to an MBP tag) (enterotoxigenic Escherichia coli (ETEC)) (UniProt P25734); test: SPR (Biacore T200), CfaE on CM5 chip, VHH injected, 25 C, 1:1 model
[2] = target: CS4 on ETEC strain (enterotoxigenic Escherichia coli (ETEC)); test: cell-based or functional assay
[3] = target: CS2 on ETEC strain #201546 (enterotoxigenic Escherichia coli (ETEC)); test: cell-based or functional assay
[4] = target: CS17 on ETEC strain (enterotoxigenic Escherichia coli (ETEC)); test: cell-based or functional assay
[5] = target: CS5 on ETEC strain #204348 (enterotoxigenic Escherichia coli (ETEC)); test: cell-based or functional assay
[6] = target: CS19 on ETEC strain #204648 (enterotoxigenic Escherichia coli (ETEC)); test: cell-based or functional assay
[7] = target: CS1 on ETEC strain #200145 (enterotoxigenic Escherichia coli (ETEC)); test: cell-based or functional assay
[8] = target: T1, CFA/I fimbrial protein (with adhesin subunit CfaE) on ETEC strain H10407 (enterotoxigenic Escherichia coli (ETEC)); test: cell-based or functional assay
[9] = target: CS14 on ETEC strain #400599 (enterotoxigenic Escherichia coli (ETEC)); test: cell-based or functional assay
[10] = target: CS3 on ETEC strain #100483 (enterotoxigenic Escherichia coli (ETEC)); test: cell-based or functional assay
[11] = target: CS21 on ETEC strain #100171 (enterotoxigenic Escherichia coli (ETEC)); test: cell-based or functional assay
[12] = target: CS6 on ETEC strain #100001 (enterotoxigenic Escherichia coli (ETEC)); test: cell-based or functional assay

Row | Binder | Kd [1] [nM] | koff [1] [s⁻¹] | kon [1] [M⁻¹ s⁻¹] | MRHA IC100 [2] [µg/mL] | MRHA IC100 [3] [µg/mL] | MRHA IC100 [4] [µg/mL] | MRHA IC100 [5] [µg/mL] | MRHA IC100 [6] [µg/mL] | MRHA IC100 [7] [µg/mL] | MRHA IC100 [8] | MRHA IC100 [9] [µg/mL] | MRHA IC100 [10] [µg/mL] | MRHA IC100 [11] [µg/mL] | MRHA IC100 [12] [µg/mL] | Caco2 adhesion assay: concentration at which adhesion was inhibited [8] [µM]
1 | B1 | 18.3 | 0.000513 | 28100 | 25 | 100 | 6.25 | 3.12 | 100 | 100 | 200 µg/mL | 100 | 100 | 25 | 25 | –
2 | B2 | – | – | – | – | – | – | – | – | – | 1.25 µM | – | – | – | – | 1.8
3 | B3 | – | – | – | – | – | – | – | – | – | 2.5 µM | – | – | – | – | 0.567
